Results taken from patent WO2021244601A1 (dated 2021).

B1: CA530 (antibody)
heavy: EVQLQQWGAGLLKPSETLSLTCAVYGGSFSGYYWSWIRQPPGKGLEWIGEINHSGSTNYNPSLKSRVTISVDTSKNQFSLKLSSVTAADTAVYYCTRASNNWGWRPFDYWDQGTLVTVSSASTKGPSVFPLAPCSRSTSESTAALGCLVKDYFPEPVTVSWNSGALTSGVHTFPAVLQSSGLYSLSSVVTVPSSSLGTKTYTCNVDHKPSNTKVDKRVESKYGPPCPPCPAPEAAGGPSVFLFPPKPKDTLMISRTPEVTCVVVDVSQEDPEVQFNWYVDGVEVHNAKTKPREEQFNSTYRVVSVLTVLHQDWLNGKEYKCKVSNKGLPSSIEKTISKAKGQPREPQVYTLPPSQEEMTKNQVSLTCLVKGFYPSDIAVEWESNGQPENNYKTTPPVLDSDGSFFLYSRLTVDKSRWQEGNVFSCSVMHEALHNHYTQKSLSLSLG
light: DIVMTQTPLSLPVTLGQPASISCRSSQSLVHSDGNTYLNWFQQRPGQSPRRLIYKVSNRDSGVPDRFSGSGSGTDFTLKISRVEAEDVGVYYCMQGTHWPRTFGQGTKVEIKRTVAAPSVFIFPPSDEQLKSGTASVVCLLNNFYPREAKVQWKVDNALQSGNSQESVTEQDSKDSTYSLSSTLTLSKADYEKHKVYACEVTHQGLSSPVTKSFNRGEC
notes: copies: 2 + 2
B2: CA304 (antibody, V domains shown)
VH: EVQLQQWGAGLLKPSETLSLTCAVYGGSFSGYYWSWIRQPPGKGLEWIGEVNHSGSTNYNPSLKSRVTISVDTSKNQLSLKLNSVTAADTAVYYCARGNTMVRGVIIPFEYWDKGTLVTVSS
VL: DIVMTQTPLSLPVTLGQPASISCRSSQSLVHSDGNTYLNWFQQRPGQSPRRLIYKVSNRDSGVPDRFSGSGAGTDFTLKISRVEAEDVGVYYCTQATQFPFTFGPGTKVDIKR
B3: CA555 (antibody, V domains shown)
VH: B2 VH
VL: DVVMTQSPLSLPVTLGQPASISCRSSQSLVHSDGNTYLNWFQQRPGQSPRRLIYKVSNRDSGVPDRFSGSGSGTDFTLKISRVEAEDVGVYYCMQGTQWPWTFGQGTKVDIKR
B4: IgG4 wild-type control antibody (antibody)
heavy: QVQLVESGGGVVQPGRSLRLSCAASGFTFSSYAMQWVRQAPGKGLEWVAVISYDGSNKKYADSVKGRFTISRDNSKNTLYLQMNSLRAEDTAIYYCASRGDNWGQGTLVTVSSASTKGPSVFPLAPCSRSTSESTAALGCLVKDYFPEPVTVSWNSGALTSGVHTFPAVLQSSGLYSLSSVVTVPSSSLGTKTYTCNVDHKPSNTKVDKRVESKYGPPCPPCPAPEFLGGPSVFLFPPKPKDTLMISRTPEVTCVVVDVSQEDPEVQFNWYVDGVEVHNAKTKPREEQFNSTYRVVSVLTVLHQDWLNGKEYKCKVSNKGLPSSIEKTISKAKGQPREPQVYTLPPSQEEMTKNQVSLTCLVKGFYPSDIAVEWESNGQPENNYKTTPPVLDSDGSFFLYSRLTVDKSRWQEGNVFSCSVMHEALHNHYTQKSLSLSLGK
light: DIVMTQSPSSLSASVGDRVTITCRASQGIRNDLGWYQQKPGKAPKLLIYAASSLQSGVPSRFSGSGSGTDFTLTISSLQPEDFATYYCLQDYNYPRTFGQGTKVEIKRTVAAPSVFIFPPSDEQLKSGTASVVCLLNNFYPREAKVQWKVDNALQSGNSQESVTEQDSKDSTYSLSSTLTLSKADYEKHKVYACEVTHQGLSSPVTKSFNRGEC

Assays:
[1] = target: S protein of Wuhan-Hu-1 on pseudovirus (SARS-CoV-2 Wuhan-Hu-1 strain, UniProt P0DTC2 14-1273); assay: cell-based or functional assay
[2] = target: T1, human CD64 (ACROBiosystems, catalog number FCA-H52H2) (human, UniProt P12314 16-288); assay: BLI, OctetRED 96, antibody on FAB2G sensor
T1 construct: also called CD64 protein; human CD64 receptor

[3] = target: S protein of SARS-CoV-2 true virus, strain BetaCoV/Beijing/IMEBJ01/2020 (SARS-CoV-2 BetaCoV/Beijing/IMEBJ01/2020); assay: cell-based or functional assay
[4] = target: Spike S1+S2 protein of Wuhan-Hu-1 (Yiqiao Shenzhou / SB, 40589-V08B1) (SARS-CoV-2 Wuhan-Hu-1 strain, UniProt P0DTC2 16-1213)
[5] = target: T1, human CD64 (ACROBiosystems, catalog …)

T1 sequence (P12314 16-288 limits assumed): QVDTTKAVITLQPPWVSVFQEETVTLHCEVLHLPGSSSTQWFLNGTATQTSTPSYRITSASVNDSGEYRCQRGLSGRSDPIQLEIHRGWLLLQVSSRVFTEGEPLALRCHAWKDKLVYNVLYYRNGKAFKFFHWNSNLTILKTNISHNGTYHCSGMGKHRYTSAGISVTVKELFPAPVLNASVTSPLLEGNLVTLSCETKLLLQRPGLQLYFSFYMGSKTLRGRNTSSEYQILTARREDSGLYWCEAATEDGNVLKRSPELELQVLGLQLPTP

Binder | IC50(nM), pseudovirus neutralisation on 293T-ACE2 cells (Luciferase RLU) [1] [nM] | binding result [2] | IC50, neutralisation of true virus on Vero cells (plaques) [3] [µg/mL] | IC50, pseudovirus neutralisation (method as 3.15) [1] [nM] | IC50 [4] [nM] | Kd [5] [nM]
B1 | 0.11 | no binding | – | – | – | –
B2 | 0.2 | – | 0.08 | 0.821 | 0.176 | –
B3 | 0.98 | – | – | 0.328 | 0.187 | –
B4 | – | – | – | – | – | 3.41
